Experimental data published in article PMC7952604, “Structural insights into phosphatidylethanolamine formation in bacterial membrane biogenesis” (Scientific Reports, 2021).
Each block holds one molecule with its values, some of them ahead of it. Square brackets hold non-standard residues; d marks the D form. Ends that are not written are not given here. * marks the point of attachment. Pyruvoyl = CC(=O)C(=O)*

B1: E. coli phosphatidylserine decarboxylase (PSD) β-subunit, from PSD_(1–287) (domain or fragment, Escherichia coli, UniProt P0A8K1 1-253, looked up)
chain: MLNSFKLSLQYILPKLWLTRLAGWGASKRAGWLTKLVIDLFVKYYKVDMKEAQKPDTASYRTFNEFFVRPLRDEVRPIDTDPNVLVMPADGVISQLGKIEEDKILQAKGHNYSLEALLAGNYLMADLFRNGTFVTTYLSPRDYHRVHMPCNGILREMIYVPGDLFSVNHLTAQNVPNLFARNERVICLFDTEFGPMAQILVGATIVGSIETVWAGTITPPREGIIKRWTWPAGENDGSVALLKGQEMGRFKLG
notes: Made as one proenzyme chain (residues 1-287 with a C-terminal His6 tag) that cuts itself; the β-chain is the N-terminal product; also called β-chain; beta chain; source: E. coli BL21(DE3), DDM-solubilised, purified (HisTrap, SEC) as auto-cleaved PSD_(1–287)
B2: E. coli PSD_(1–287) αβ-heterodimer, apo (complex, Escherichia coli)
chain 1: B1 chain
chain 2: STVINLFAPGKVNLVEQLESLSVTKIGQPLAVST
modifications: pyruvoyl residue (Pvl-254) at the N-terminus, formed from Ser-254 on auto-cleavage
notes: β-chain of E. coli phosphatidylserine decarboxylase, residues 1-253; α-chain of E. coli phosphatidylserine decarboxylase, residues 254-287; The unit that pairs with itself into the (αβ)2 heterotetramer; also called Apo-PSD1; Apo-PSD2; source: E. coli BL21(DE3), DDM-solubilised, purified (HisTrap, SEC)
B3: 8PE-PSD: αβ-heterodimer of E. coli PSD_(1–287) with 8:0/8:0 PE linked to Pvl-254 (complex, Escherichia coli)
chain 1: B1 chain
chain 2: B2 chain 2
modifications: 8:0/8:0 PE covalently linked to the pyruvoyl residue Pvl-254 (reduced Schiff base)
notes: β-chain of E. coli phosphatidylserine decarboxylase, residues 1-253; α-chain of E. coli phosphatidylserine decarboxylase, residues 254-287; source: E. coli BL21(DE3), purified PSD_(1–287), conjugated with 8PE by NaCNBH3-dependent reduction of the Schiff base
B4: 10PE-PSD: αβ-heterodimer of E. coli PSD_(1–287) with 10:0/10:0 PE linked to Pvl-254 (complex, Escherichia coli)
chain 1: B1 chain
chain 2: B2 chain 2
modifications: 10:0/10:0 PE covalently linked to the pyruvoyl residue Pvl-254 (reduced Schiff base)
notes: β-chain of E. coli phosphatidylserine decarboxylase, residues 1-253; α-chain of E. coli phosphatidylserine decarboxylase, residues 254-287
B5: E. coli PSD α-subunit, from PSD_(1–287), conjugated with 8:0/8:0 PE (domain or fragment, Escherichia coli, UniProt P0A8K1 254-287, looked up)
chain: [Pyruvoyl]TVINLFAPGKVNLVEQLESLSVTKIGQPLAVST
modifications: not fully specified (residue 1); also: 8:0/8:0 PE linked to Pvl-254 by reduced Schiff base
notes: α-chain of E. coli phosphatidylserine decarboxylase, residues 254-287 of the construct PSD_(1–287); also called 8PE-conjugated α-chain; source: E. coli BL21(DE3), purified PSD_(1–287), conjugated with 8PE by NaCNBH3-dependent reduction of the Schiff base
B6: E. coli PSD α-subunit, from PSD_(1–287), conjugated with 10:0/10:0 PE (domain or fragment, Escherichia coli, UniProt P0A8K1 254-287, looked up)
chain: [Pyruvoyl]TVINLFAPGKVNLVEQLESLSVTKIGQPLAVST
modifications: not fully specified (residue 1); also: 10:0/10:0 PE linked to Pvl-254 by reduced Schiff base
notes: α-chain of E. coli phosphatidylserine decarboxylase, residues 254-287 of the construct PSD_(1–287); also called 10PE-conjugated α-chain
B7: E. coli phosphatidylserine decarboxylase (PSD) α-subunit, from PSD_(1–287), apo (domain or fragment, Escherichia coli, UniProt P0A8K1 254-287, looked up)
chain: [Pyruvoyl]TVINLFAPGKVNLVEQLESLSVTKIGQPLAVST
notes: No removal of the His6 tag is described; also called α-chain; alpha chain; source: E. coli BL21(DE3), DDM-solubilised, purified (HisTrap, SEC) as auto-cleaved PSD_(1–287)

Assays:
PSD1–287 [1] = target: T1, PSD1–287 (Escherichia coli, UniProt P0A8K1); assay: X-ray structure ([…] Å); NaCNBH3 reduction, MALDI-TOF; assay type: binding; conditions: 1 mM lipid, 50 mM NaCNBH3, 37 °C, 14 h, pH 7.5; covalent; reduced Schiff base to Pvl-254
T1 construct: gene psd

PSD1–322 [2] = target: T2, PSD1–322 (Escherichia coli, UniProt P0A8K1, H144N); assay: Schiff base reduction with NaCNBH3, MALDI-TOF; assay type: binding; conditions: 1 mM lipid, 50 mM NaCNBH3, 37 °C, 15 h; covalent; active site Pvl-254
T2 construct: gene psd; full length (1-322), C-terminal His6 tag, auto-cleaved 253/254 with Ser254 turned to pyruvoyl, expressed in E. coli BL21(DE3), solubilised in DDM

PSD1–322 [3] = target: T3, PSD1–322 (Escherichia coli, UniProt P0A8K1, H144A); assay: Schiff base reduction with NaCNBH3, MALDI-TOF; assay type: binding; conditions: 1 mM lipid, 50 mM NaCNBH3, 37 °C, 15 h; covalent; active site Pvl-254
T3 construct: gene psd; full length (1-322), C-terminal His6 tag, auto-cleaved 253/254 with Ser254 turned to pyruvoyl, expressed in E. coli BL21(DE3), solubilised in DDM

PSD1–287 [4] = target: T1, PSD1–287; assay: Schiff base reduction with NaCNBH3, MALDI-TOF; assay type: binding; conditions: 1 mM lipid, 50 mM NaCNBH3, 37 °C, 14 h, pH 7.5, covalent, decarboxylated
[5] = target: the molecule itself; assay: crystal structure; apo PSD_(1–287) in DDM; sitting drop vapor diffusion at 20 °C; two crystal forms, Apo-PSD1 (1.90 Å) and Apo-PSD2 (2.63 Å)
[6] = target: the molecule itself; assay: crystal structure; PE-conjugated PSD_(1–287) in DDM; sitting drop vapor diffusion at 20 °C; 8PE-PSD (2.12 Å) and 10PE-PSD (2.70 Å)
[7] = target: B1; assay: as above; conditions: both partners purified
[8] = target: B1; assay: crystal structure; apo PSD_(1–287) in DDM; sitting drop vapor diffusion at 20 °C; two crystal forms, Apo-PSD1 (1.90 Å) and Apo-PSD2 (2.63 Å); conditions: both partners purified

T3 sequence (P0A8K1 254-322): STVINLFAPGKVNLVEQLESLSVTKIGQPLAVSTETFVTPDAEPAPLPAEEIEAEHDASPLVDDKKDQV
T3 sequence (P0A8K1 1-253 H144A): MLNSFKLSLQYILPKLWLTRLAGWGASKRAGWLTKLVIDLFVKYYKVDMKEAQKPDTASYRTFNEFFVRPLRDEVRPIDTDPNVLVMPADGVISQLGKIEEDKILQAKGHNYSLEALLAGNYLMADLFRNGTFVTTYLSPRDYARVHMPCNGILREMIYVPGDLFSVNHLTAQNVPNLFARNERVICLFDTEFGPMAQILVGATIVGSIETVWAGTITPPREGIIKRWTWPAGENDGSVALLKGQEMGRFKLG
T2 sequence (P0A8K1 1-253 H144N): as the sequence (P0A8K1 1-253 H144A) above, with A144N counted along it
T2 sequence (P0A8K1 254-322): as the sequence (P0A8K1 254-322) above

% conjugation (PSD1–287 [1]): 98%
Molecule: CCCCCCCC(=O)OC[C@H](COP(=O)(O)OCCN)OC(=O)CCCCCCC [8PE, 8:0/8:0 PE]
Schiff base reduction with NaCNBH3, MALDI-TOF (PSD1–322 [2]): these proteins were able to form an adduct with 8PE, albeit at a reduced efficiency
Schiff base reduction with NaCNBH3, MALDI-TOF (PSD1–322 [3]): these proteins were able to form an adduct with 8PE, albeit at a reduced efficiency

% conjugation (PSD1–287 [4]; trapped as 10PE adduct of Pvl-254): 97%
Molecule: CCCCCCCCCC(=O)OC[C@H](COP(=O)(O)OC[C@H](N)C(=O)O)OC(=O)CCCCCCCCC [10PS, 10:0/10:0 PS]

% conjugation (PSD1–287 [4]; trapped as 14PE adduct of Pvl-254): 94%
Molecule: CCCCCCCCCCCCCC(=O)OC[C@H](COP(=O)(O)OC[C@H](N)C(=O)O)OC(=O)CCCCCCCCCCCCC [14PS, 14:0/14:0 PS]

Molecule: B1
binding result [5]: binds

Molecule: B2
stoichiometry N [5]: 2 αβ-heterodimers

Molecule: B3
stoichiometry N [6]: 2 αβ-heterodimers

Molecule: B4
stoichiometry N [6]: 2 αβ-heterodimers

Molecule: B5
binding result [7]: binds

Molecule: B6
binding result [7]: binds

Molecule: B7
binding result [8]: binds
